Laboratory results taken from PMC4374139.
One block for each substance: values may come before it.

Assays:
TopBP1 [1] = target: TopBP1 (UniProt Q92547); experiment: biotin-peptide streptavidin pull-down from nuclear extract; settings: reference: nonphosphorylated peptide; sites S304
[2] = target: TopBP1 BRCT domains 4 and 5 (UniProt Q92547); experiment: biotin-peptide pull-down of purified GST-BRCT4-5; settings: reference: nonphosphorylated peptide; sites S304
TopBP1 [3] = target: TopBP1 (UniProt Q92547); experiment: GFP-BLM pull-down, western blot; settings: reference: wild type; sites S304
TopBP1 [4] = target: TopBP1 (UniProt Q92547); experiment: GFP-BLM pull-down, western blot; settings: reference: wild type; sites S304; remark: listed apart in the source
TopBP1 BRCT5 [5] = target: TopBP1 BRCT5 (UniProt Q92547); experiment: GST-BRCT5 pull-down of SFB-BLM from lysate; settings: reference: wild type; sites S304
TopBP1 [6] = target: TopBP1 (UniProt Q92547); experiment: GFP-BLM pull-down, western blot; settings: reference: wild type; sites S304; remark: listed apart in the source
TopBP1 BRCT5 [7] = target: TopBP1 BRCT5 (UniProt Q92547); experiment: biotin-peptide (Ser304) pull-down of purified GST-BRCT5; settings: reference: nonphosphorylated Ser304 peptide; sites S304

binding against the reference (TopBP1 [1]): gained | binding against the reference [2]: gained
Substance: BLM 297-311 (from UniProt P54132) pS304 peptide

binding against the reference (TopBP1 [3]): weaker | binding against the reference (TopBP1 [4]): weaker | binding against the reference (TopBP1 BRCT5 [5]): weaker | binding against the reference (TopBP1 [6]): lost
Substance: BLM (from UniProt P54132) S304A

binding against the reference (TopBP1 BRCT5 [7]): gained
Substance: BLM (from UniProt P54132) pS304 peptide
